Experimental data published in the nanobody polyreactivity screen of Harvey et al. (2022).

Assay: yeast display, Sf9 membrane polyspecificity reagent, FACS + sequencing; frameworks hold sequencing errors
Outline: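 A synthetic nanobody library was expressed on Saccharomyces cerevisiae BJ5465 by galactose induction for 36–48 hours. The library was stained for 1 hour at 4 °C with 10% biotinylated, detergent-solubilized Sf9 membrane reagent and enriched with streptavidin microbeads before FACS. Low and high (top ~1%) gates were set on anti-HA fluorescence for expression and streptavidin fluorescence for reagent binding, and each polyreactivity label reflects the gate of origin.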

| Sequence | polyreactivity (PSR sort gate) |
| --- | --- |
| QVQLVESGGGLVQAGGSLRLSCAASGGILNYYAMGWYRQAPGKERELVAAITGIGGSTSYADSVKGRFTISRDNAKNTVYLQMNSLKPEDTAVYYCAAEATSSYYVPDYDYWGQGTQVTVSS | low polyreactivity |
| QVQLVESGGGLVQAGGSLRLSCAASGNIFESYGMGWYRQAPGKERELVATINTSSGSTYYADSVKGRFTISRDNAKNTVYLQMNSLKPEDTAVYYCAARFDSFWVEYDYWGQGTQVTVSS | low polyreactivity |
| QVQLVESGGGLVQAGGSLRLSCAASGSISYANALGWYRQAPGKERELVAAISGSGGSTYYADSVKGRFTISRDNAKNTVYLQMNSLKPEDTAVYYCAARGFPPGDEWHPYDYWGQGTQVTVSS | low polyreactivity |
| QVQLVESGGGLVQAGGSLRLSCAASGLTFYGYGMGWYRPGPGKERELVASITSGGNTYYADSVKGRFTISRDNAKNNVYLQMYSLKPEDNAVSYCAVTAIALYYSSGYYWGQGTQVTVSS | low polyreactivity |
| QVQLVESGGGLVQAGGSLRLSCAASGLSCYPYAMGWYRQAPGKEMELVAAITSGDSTYYADSVKGRFTISRDNAKNTVYLQMNSLKPVDTAVYYCAKPDWVEVVTDFEYWGQGTQVTVSS | low polyreactivity |
| QVQLVESGGGLVQAGGSLRLSCAASGSTFRFYAMGWYRPAPGKERELVAVIRSTGSTYYADSVKGRFTISRDNAKNTVYLQMNSLKPEDTAVYYCAAQNAWWSNGRSYDYWGQGTQVTVSS | low polyreactivity |
| QVQLVESGGGLVQAGGRLRLSCAASGSTFRPYAMGWYRQAPGKERELVAAITFNGDTYADSVKGRFTISRDNAKNTVYLQMNSLKPEDTAVYYCAARKWYYYLRPWTSVGGYYWGQGTQVTVSS | high polyreactivity |
| QVQLVESGGGLVQAGGSLRLSCAASGSTFVSYVMGWYRQAHGKERELVATSSGRAGRTYYADSVKGRFTISRDNAKNTVSLQMNSLKPEDTAVYYCNAGQWRYPGLYYYWGQATQVTVSS | high polyreactivity |
| QVQLVESGGGLVQAGGSLRLSCAASGRTFAPYALGWYRQAPRKERELVAAITNGGSTSYADSVKGRFTISRDNAKNTVYLQMNSLKPEDTAVYYCAADANRYHRQRWSPYKMYYWGQGTQVTVSS | low polyreactivity |
| QVHLVESGGGLVQAGGSLRLSCAASGRTFPYNAMGWYRQAPGKERELVDAISSGGSTNYADSVKGRFTISRDNAKNTVYLQMNSLKPEDTAVYYCATKYQRRPYRYSYWGQGTQVTVSS | low polyreactivity |
| QVQLVESGGGLVQAGGSLRLICAASGSIFSSYAMGWYRQAPGKERELVAAITSGGSTYYADSVKGRFTISRDNAKNTVYLQMNSLKPEDTAVYYCAARQVRTSKLHMGYWGQGTQVTVSS | low polyreactivity |
| LVQLVESGGGLVQAGGSLRLSCAASGSIFSVYAMGWYRQAPGKERELVAAITWRGGNTYYADSVKGRFTLSRDNAKNTVYLQMNSLKPEDTAVYYCNRVYRQRLGRDYWGQGTQVTVSS | high polyreactivity |
| QVQLVESGGGLVQAGGSLRLSCAASGYIFGVYTMGWYRQAPGKERELVAGISSGSSTYYADSVKGRFTISRDNAKNTVYLQMNSLKPEDTAVYYCAARERSRTYTSRKQVDYGYGYWGQGTQVTVSS | low polyreactivity |
| QVQHVESGGGLVQAGGSLRLSGAASGSTFQSYAMGWYRQAPGQERELVAAISTSDTDRTYYADSVKGRFTISRDNAKNTVYLQMNSLKPEDTAVYYCNADGYAHGDWYGYWGQGTQVTVSS | low polyreactivity |
| QVQLVESGGGLVQAGGSLRLSCAASGRIFSYNAMGWYRQAPGKERELVAAIRVRGGSTYYADSVKGRFTLSRDNAKNTVYLQMNSLKPEDTAVYYCNASDYKISATNAVVRYYYWGQGTQVTVSS | high polyreactivity |
| QVQLLESGGGLVQAGGSLRLSCAASGFSFEYYAMGWSRQAPGKDRELVAAIRSVSGTNYADSVKGRFTISRDNAKNTVYLQMNSQKPEDTAVYYCAKLRYPYLFLDDSEYWGQRTQVTVSS | low polyreactivity |
| QVQLEESGGGIVQAGGSLRLSCAASGRTFYGYAMGWYRQAPGKEREFVAAINERGTSTYYADSVKGRFTISRDNAKNTVYLQMNSLKPEDTAVYYCAARYLRTQYQDGTRSRIQLDYWGQGTQVTVSS | high polyreactivity |
| QVQLVESGGGLVQAGGSLRLSCAASGFTFPIYAMGWYRQAPGKEREFVAAITRSGVSTYYADSVKGRFTISRDNAKNTVYLQMNSLKPEDTAVYYCAARYKGRAFWMDYWGQGTQVTVSS | high polyreactivity |
| QVQLVESGGGLVQAGGSLRLSCAASGYTFVLNAMGWYRQAPGKEREMVAAINLDSGNTNYADSVKGRFTISRDNAKNTVYLQMNSLKPEDTAVYYCNTDVKFGGTAYDYWGQGTQVNVSS | low polyreactivity |
| QVQLVESGGGLVQAGGSLRLSCAASGFTFDFYVMGWYRQAPGKERELVAAISWDGGTTYYADSVKGRFTISRDNAKNTVYLQMNSLKPEDTAVYYCAADDWVYVPTGAWYLYEYWGQGTQVTVSS | high polyreactivity |
| PVQLVESGGGLVQAGGSLRLSCAASGSIFGYYAMGWYRQAPGKERELVAAITWSGDSTYYADSVKGRFTISRDNAKNTVYLQMNSLKPEDTAVYYCAARQFVHTRYFSFGYWGQGTQVTVSS | low polyreactivity |
| QVQLVESGGGLVQAGGSLRLSCAASGYIFTSYATMGWYRQAPGKERELVATISSGGSTNYADSVKGRVTISRDNAKNTVYLQMNSLKPEDTAVYYCYADRFYTYWGYSWVYPSGSWGQGTQVTVSS | low polyreactivity |

| Sequence | polyreactivity (PSR sort gate) |
| --- | --- |
| QVQLVESGGGVVQAGGSLRLICAASGSTFGVYAMGWYRQAPGKERELFASISESGGNTYYADSVKGRFTISRDNAKNTVYLQMNSLKPDDTAVYYCNTDVVDVHYIQAYYWGQVTQVTVSS | low polyreactivity |
| QVQLVESGGGLVQAGGSLRLSCAASGGLFIGYAMGWYRQAPGKERELVAAISYSGGSTYYADSVKGRFTISRDNAKNTVYLQMNSLKPEDTAVYYCAAQVDRKYRWFNSWGQGTQVTVSS | high polyreactivity |
| QVQLVESGGGLVQAGGSLRLSCAASGSIFVRNAMGWYRQAPGKERELVAAISGSGGRTYYADSEKGRFTISRDNAKNTVYLQMNSLKPEDTAVYYCAKEVTYWYGGNYDYWGQGTQVTVSS | high polyreactivity |
| QVQLVESGGGLVQAGGSLRLSCAASGFTFRVNAMGWYRQAPGKERELVAAISSGGSTNYADSVKGRFTISRDNAKNTVYLQMNSLKPEDTAVYYCAKRFKYIYYWGQGTQVTVSS | high polyreactivity |
| QDQLVESGGGLVQAGGSLRLSCAASGRTFDDYAMGWYRQAPGKERELVAAISSSGGSTYYADSVKGRFSISRDNAKNTVYLQMNCLKPDDTAVYYCAADYDWGYWYDYWGQGTQVTVSS | low polyreactivity |
| QVQLVESGGGLVQAGGSLRLSCAASGRIFDIYTMGWYRQAPGKERELVASITKRGGSTYYADSVKGRFTISRDNAKNTVYLQMKSLKPEDTAVYFCNVAGKQKPYYVTTRLDYWGQGTQVTVSS | high polyreactivity |
| QVQLVESGGGLVQAGGSLRLSCADSGSIFPFYAMGWYRQAPGKERELVASISSGGSTNYADSVKGRFTISRDNAKKTVYLQMNSLKPEDTAVYYCNAVGTFVRYGTDGRDGVNYDYWGQGTQVTVSS | low polyreactivity |
| QVHVVESWGGLVQAGGSLSLSCAASGLIIWMYTMGWYRQAPWKERELVAAIDWSGGSTYYADSVKGRFTISRDNAKNTVYLQMNSLKPEDTAVYYCAADPEPSYRFDYWGQGTQVTVSS | low polyreactivity |
| QVQLVESGGGLVQAGGSLRLSCAASGSIFNSNGMGWYRPAPGKERELVAAITGGGSTNYADSVKGRFTISRDNAKNTVYLQMNSLKPEDTAVYYCAARPLRTDWAYYYWGQGTQVTVSS | low polyreactivity |
| QVQLVESGGGLVQARGSLRLICAASVQIFRVYAMGWSRQAPGKEREFVAAMTYDGGNTYYADSVKGRFTISRDNAKNTVYLQMLSLKPEDTAVYYCAKDYGEWGQGTQVTVSS | low polyreactivity |
| QVQLLESGGGLVQAGGSLRLTCAASGITFQYYAMGWYRQAPGKERELVAAITSSGVSTYYADSVKGRFTISRDNAKNTVYLQMNSLKPEDTAVYYCNTVVRGWSSSAYDYWGQGTQVTVSS | low polyreactivity |
| QVQLVESGGGLVQAGGSLSLSCAASGRIFYGYVMVWYRQAPGKERELVAAITWSGSRTYYADSVKGRFTISRDNAKNTVFLQMNSLKPADTAVYYCAARIPSDGYYYWGQGTQVTVSS | high polyreactivity |
| QVQLLESGGGLVQAGGSLRLSCAASGSIFVGYAMGWYRPAPGKERELVASITTPGGSTHYADSVKGRFTISRDNAKNTVYLQMNSLKPEDTAVYYCAADSLSNGVLQYLPGYDYWGQGTQVTVSS | low polyreactivity |
| QVQLVESSGGLVQAGGSLRLSCAASGLTFKRYAMGWYRQAPGKERELVAAINSGGSTNYADSVKGRFTISRDNAKNTVYLQMNSLKPEDTAVYDCAASTSRYYWYALRDYWGQGTQVTVSS | high polyreactivity |
| QVQLVESGGGLVQAGGSLRLRCAASGFTFRLYAMGGDRQAPGKERELVATITQRGGRTYYADSVKGRFTISRDNAKNTVYLQMNSLKPEDTAVYYCAATWSLTTGTKFDYWGQGTQVTVSS | high polyreactivity |
| QVQLVESGGGLVQAGGSLRLSCAASGRTIGGYAMGWYRQAPGKEREMVAAINYSGGTTYYADSVKGRFTISRDNAKNTVYLQMNSLKPEDTAVYYCIRDYHSESGNPGYQYGYWGQGTQVTVSS | high polyreactivity |
| QVQLVESGGGLVQAGGSLRLSCAASGRTFVYNAMGWYRQAPGIERELVAAITTSGASTYYADSVKGRFTISRDNAKNTVYLQMNSLKPEDTAVYDCNAYSRYSYGRTYGYWGQGTQVTVSS | high polyreactivity |
| QVQLVESGGGLVQAGGSLRLSCAASGRIFRGYAMGWYRQAPGKERELVAAISRGGNTDYADSVKGRFTISRDNAKNTVYLQMNSLKPEDTAVYYCAVGYVSYRKFYLYNSWGQGTQVTVSS | high polyreactivity |
| QVQLVESGGGLVQAGGSLRLSCAASGFNFYSNAMGWYRQEPGKERELVADINRGGTSTYYADSVKGRFTISRDNAKNTVYLQMNSLKPEDTAVYYCNAGLRYRSRLWNIYWYDYWGQGTQVTVSS | high polyreactivity |
| QVQLVESGGRLVQAGGSLRLSCAASGFTFRRYAMGWYRQAPGKERELVAVITTAGSTNYADSVKGRFTISRDNAKNTVYLQMNTLKPEDTAVYYCATDNGTRKRRYDYWGQGTQVTVSS | low polyreactivity |
| QVQLVESGGGLVQAGGSLRLSCAASGRTFTSYAMGWYRQEHGKERELVAGISSGGSTNYADSVKGRFTLSRDNAKNTVYLQMNSLKPEDTAVYYWAAGFSPGSYDAPTLAFEYWGQGTQVTVSS | low polyreactivity |
